Test results published in the supplement of paper PMC6757056.
± gives the standard deviation of the averaged measurements.

B1: library; a variant is named by its letters at N, in order (parent)
chain: GCUGUCACCGGUGCUUGGUACGUUAUAUUCAGCCGGUCUGAUGAGUCUNNNNNNAGACGAAACAGC

Columns and labels:
(6R,S)-folinic acid [1] = variants of: B1; assay: normalized RNA/DNA level without ligand (relative to sTRSVctl = 100) (log10 (% of sTRSVctl)); HEK293T overexpressing SLC46A1; higher = less ribozyme self-cleavage, higher mRNA level; conditions: without (6R,S)-folinic acid; ligand present: no
Method in brief: (§1)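 HEK293T cells were transfected with library plasmids carrying ribozyme switches linked to an mCherry reporter, or an eGFP reporter in some ligand experiments, at 4 µg per well of a 6-well plate, with any ligand added 1 h beforehand. After 72 h, total RNA was extracted with EDTA, reverse-transcribed, amplified, barcoded and sequenced. RNA level was defined as RNA reads over DNA reads, normalized to a spiked-in non-cleaving sequence or to the top-ranked sequences. That value was multiplied by 100 and converted to log10, the top set was 25 sequences, and only sequences with ≥100 DNA reads were retained.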

(6R,S)-folinic acid [2] = variants of: B1; assay: normalized RNA/DNA level with ligand (relative to sTRSVctl = 100) (log10 (% of sTRSVctl)); HEK293T overexpressing SLC46A1; ligand concentration (+) RNA-Seq: 6 mM; higher = less ribozyme self-cleavage, higher mRNA level; conditions: with (6R,S)-folinic acid; ligand present: yes
Method in brief: as §1

GCUGUCACCGGUGCUUGGUACGUUAUAUUCAGCCGGUCUGAUGAGUCUUCUUCGAGACGAAACAGC [UCUUCG]
normalized RNA/DNA level without ligand (log10) ((6R,S)-folinic acid [1]): 1.91 ± 0.02 | normalized RNA/DNA level with ligand (log10) ((6R,S)-folinic acid [2]): 2.0469 ± 0.0016

GCUGUCACCGGUGCUUGGUACGUUAUAUUCAGCCGGUCUGAUGAGUCUAACCCGAGACGAAACAGC [AACCCG]
normalized RNA/DNA level without ligand (log10) ((6R,S)-folinic acid [1]): 1.99 ± 0.0042 | normalized RNA/DNA level with ligand (log10) ((6R,S)-folinic acid [2]): 2.02 ± 0.044

GCUGUCACCGGUGCUUGGUACGUUAUAUUCAGCCGGUCUGAUGAGUCUUCAGAGAGACGAAACAGC [UCAGAG]
normalized RNA/DNA level without ligand (log10) ((6R,S)-folinic acid [1]): 1.75 ± 0.026 | normalized RNA/DNA level with ligand (log10) ((6R,S)-folinic acid [2]): 1.98 ± 0.0089

GCUGUCACCGGUGCUUGGUACGUUAUAUUCAGCCGGUCUGAUGAGUCUAUCAUCAGACGAAACAGC [AUCAUC]
normalized RNA/DNA level without ligand (log10) ((6R,S)-folinic acid [1]): 2.01 ± 0.022 | normalized RNA/DNA level with ligand (log10) ((6R,S)-folinic acid [2]): 1.98 ± 0.031

GCUGUCACCGGUGCUUGGUACGUUAUAUUCAGCCGGUCUGAUGAGUCUGCCAUUAGACGAAACAGC [GCCAUU]
normalized RNA/DNA level without ligand (log10) ((6R,S)-folinic acid [1]): 2.041 ± 0.0051 | normalized RNA/DNA level with ligand (log10) ((6R,S)-folinic acid [2]): 2.008 ± 0.015

GCUGUCACCGGUGCUUGGUACGUUAUAUUCAGCCGGUCUGAUGAGUCUCAGUGAAGACGAAACAGC [CAGUGA]
normalized RNA/DNA level without ligand (log10) ((6R,S)-folinic acid [1]): 1.979 ± 0.011 | normalized RNA/DNA level with ligand (log10) ((6R,S)-folinic acid [2]): 2.007 ± 0.02

GCUGUCACCGGUGCUUGGUACGUUAUAUUCAGCCGGUCUGAUGAGUCUUUCUUAAGACGAAACAGC [UUCUUA]
normalized RNA/DNA level without ligand (log10) ((6R,S)-folinic acid [1]): 2.032 ± 0.02 | normalized RNA/DNA level with ligand (log10) ((6R,S)-folinic acid [2]): 2.02 ± 0.081

GCUGUCACCGGUGCUUGGUACGUUAUAUUCAGCCGGUCUGAUGAGUCUCCUGGGAGACGAAACAGC [CCUGGG]
normalized RNA/DNA level without ligand (log10) ((6R,S)-folinic acid [1]): 2.012 ± 0.01 | normalized RNA/DNA level with ligand (log10) ((6R,S)-folinic acid [2]): 2.017 ± 0.0021

GCUGUCACCGGUGCUUGGUACGUUAUAUUCAGCCGGUCUGAUGAGUCUAGCUAUAGACGAAACAGC [AGCUAU]
normalized RNA/DNA level without ligand (log10) ((6R,S)-folinic acid [1]): 1.987 ± 0.014 | normalized RNA/DNA level with ligand (log10) ((6R,S)-folinic acid [2]): 2.009 ± 0.018

GCUGUCACCGGUGCUUGGUACGUUAUAUUCAGCCGGUCUGAUGAGUCUUCGGCGAGACGAAACAGC [UCGGCG]
normalized RNA/DNA level without ligand (log10) ((6R,S)-folinic acid [1]): 1.997 ± 0.011 | normalized RNA/DNA level with ligand (log10) ((6R,S)-folinic acid [2]): 2.05 ± 0.046

GCUGUCACCGGUGCUUGGUACGUUAUAUUCAGCCGGUCUGAUGAGUCUGCCUCAAGACGAAACAGC [GCCUCA]
normalized RNA/DNA level without ligand (log10) ((6R,S)-folinic acid [1]): 2.041 ± 0.02 | normalized RNA/DNA level with ligand (log10) ((6R,S)-folinic acid [2]): 2.05 ± 0.044

GCUGUCACCGGUGCUUGGUACGUUAUAUUCAGCCGGUCUGAUGAGUCUGGUGCCAGACGAAACAGC [GGUGCC]
normalized RNA/DNA level without ligand (log10) ((6R,S)-folinic acid [1]): 2.029 ± 0.0081 | normalized RNA/DNA level with ligand (log10) ((6R,S)-folinic acid [2]): 2.03 ± 0.039

GCUGUCACCGGUGCUUGGUACGUUAUAUUCAGCCGGUCUGAUGAGUCUGUUGGGAGACGAAACAGC [GUUGGG]
normalized RNA/DNA level without ligand (log10) ((6R,S)-folinic acid [1]): 1.912 ± 0.013 | normalized RNA/DNA level with ligand (log10) ((6R,S)-folinic acid [2]): 2.042 ± 0.017

GCUGUCACCGGUGCUUGGUACGUUAUAUUCAGCCGGUCUGAUGAGUCUUUUUGCAGACGAAACAGC [UUUUGC]
normalized RNA/DNA level without ligand (log10) ((6R,S)-folinic acid [1]): 1.959 ± 0.0097 | normalized RNA/DNA level with ligand (log10) ((6R,S)-folinic acid [2]): 1.93 ± 0.055

GCUGUCACCGGUGCUUGGUACGUUAUAUUCAGCCGGUCUGAUGAGUCUCAAAGGAGACGAAACAGC [CAAAGG]
normalized RNA/DNA level without ligand (log10) ((6R,S)-folinic acid [1]): 1.909 ± 0.0072 | normalized RNA/DNA level with ligand (log10) ((6R,S)-folinic acid [2]): 2 ± 0.021

GCUGUCACCGGUGCUUGGUACGUUAUAUUCAGCCGGUCUGAUGAGUCUCUCGGUAGACGAAACAGC [CUCGGU]
normalized RNA/DNA level without ligand (log10) ((6R,S)-folinic acid [1]): 2.03 ± 0.034 | normalized RNA/DNA level with ligand (log10) ((6R,S)-folinic acid [2]): 2.02 ± 0.028

GCUGUCACCGGUGCUUGGUACGUUAUAUUCAGCCGGUCUGAUGAGUCUGUUUUGAGACGAAACAGC [GUUUUG]
normalized RNA/DNA level without ligand (log10) ((6R,S)-folinic acid [1]): 2.007 ± 0.0091 | normalized RNA/DNA level with ligand (log10) ((6R,S)-folinic acid [2]): 2.02 ± 0.049

GCUGUCACCGGUGCUUGGUACGUUAUAUUCAGCCGGUCUGAUGAGUCUGCUUCCAGACGAAACAGC [GCUUCC]
normalized RNA/DNA level without ligand (log10) ((6R,S)-folinic acid [1]): 2.029 ± 0.0087 | normalized RNA/DNA level with ligand (log10) ((6R,S)-folinic acid [2]): 2.04 ± 0.034

GCUGUCACCGGUGCUUGGUACGUUAUAUUCAGCCGGUCUGAUGAGUCUGCUUCUAGACGAAACAGC [GCUUCU]
normalized RNA/DNA level without ligand (log10) ((6R,S)-folinic acid [1]): 2.0037 ± 0.0006 | normalized RNA/DNA level with ligand (log10) ((6R,S)-folinic acid [2]): 2.01 ± 0.048

GCUGUCACCGGUGCUUGGUACGUUAUAUUCAGCCGGUCUGAUGAGUCUGGCAGGAGACGAAACAGC [GGCAGG]
normalized RNA/DNA level without ligand (log10) ((6R,S)-folinic acid [1]): 2.064 ± 0.015 | normalized RNA/DNA level with ligand (log10) ((6R,S)-folinic acid [2]): 2.045 ± 0.0058

GCUGUCACCGGUGCUUGGUACGUUAUAUUCAGCCGGUCUGAUGAGUCUACUCUAAGACGAAACAGC [ACUCUA]
normalized RNA/DNA level without ligand (log10) ((6R,S)-folinic acid [1]): 2.005 ± 0.0056 | normalized RNA/DNA level with ligand (log10) ((6R,S)-folinic acid [2]): 2.01 ± 0.06
